The target of assay [1] is stable Ragulator-VhH + GFP-Rag complexes (UniProt Q9Y2Q5). Description: single-molecule imaging on beads.
Assay [2] concerns the target GST-Ragulator pre-incubated with GFP-tagged active-loaded Rag heterodimers (UniProt Q6IAA8). As to the kind of experiment: single-molecule imaging on beads.

Sequence of UniProt Q9Y2Q5 (Q9Y2Q5 whole entry, looked up, one chain of several): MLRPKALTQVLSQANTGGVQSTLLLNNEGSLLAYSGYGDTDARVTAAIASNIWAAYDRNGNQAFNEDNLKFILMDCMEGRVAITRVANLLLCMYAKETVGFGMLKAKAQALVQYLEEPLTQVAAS

Take “Raptor-Halo^TMR (co-purified with mTOR and mLST8) (from UniProt Q8N122;P42345;Q9BVC4) (complex)”: the residence time (photobleaching-corrected half-life, t1/2) was 13.2 s in assay [1] and 3.1 s in assay [2].

Values taken from article PMC6279252.
